The values below come from publication PMC8668096, “Investigating the role of the carbon storage regulator A (CsrA) in Leptospira spp”.

The target in data set [1] is T1, rCsrA L. biflexa (Leptospira biflexa serovar Patoc, UniProt B0SQM8 1-79).
T1 sequence: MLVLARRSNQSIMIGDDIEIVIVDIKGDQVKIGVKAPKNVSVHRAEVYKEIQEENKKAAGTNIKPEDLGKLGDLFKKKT
As to the kind of experiment: EMSA; dose-dependent, 100-800 nM rCsrA, 1 nM RNA; 10 mM HEPES pH 7.3, 20 mM KCl, 1 mM MgCl2, 1 mM DTT (plus 10 mM DTT), 7.5% glycerol, 0.2 ug/uL yeast tRNA, 37 C 30 min; 10% native PAGE. To be noted: protein: recombinant; tags: N-terminal 6xHis (pRSET-C); chain copies: 2; label: 5' biotin; hairpin (predicted, GGA-containing hexaloop).

In data set [2] the target is T1, rCsrA L. biflexa. As to the kind of experiment: EMSA; no interaction, 100-800 nM rCsrA, 1 nM RNA; 10 mM HEPES pH 7.3, 20 mM KCl, 1 mM MgCl2, 1 mM DTT (plus 10 mM DTT), 7.5% glycerol, 0.2 ug/uL yeast tRNA, 37 C 30 min; 10% native PAGE. To be noted: protein: recombinant; tags: N-terminal 6xHis (pRSET-C); chain copies: 2; label: 5' biotin. A general note: In EMSA bound probe runs differently from free probe, usually more slowly.

Turning to UGGACACACAGGAGGGUGUGAC (structured_RNA) [LEPBIa_1872 WT (flaB3 upstream)], the binding result in data set [1] was “binds”.

UGGACACACAAAAGGGUGUGAC (structured_RNA) [LEPBIa_1872 Mut (GGA to AAA)]: the binding result in data set [2] is reported as “no binding”.
